Source: patent US20170340735A1 (published 2017)

T1: human TIGIT on the cell surface (human, UniProt Q495A1 22-244)
T1 construct: Expressed on engineered Jurkat cells or naturally on human primary CD8+ T cells (the cells are named under assay); also called Human TIGIT Jurkat; human TIGIT expressing Jurkat cells
T1 sequence: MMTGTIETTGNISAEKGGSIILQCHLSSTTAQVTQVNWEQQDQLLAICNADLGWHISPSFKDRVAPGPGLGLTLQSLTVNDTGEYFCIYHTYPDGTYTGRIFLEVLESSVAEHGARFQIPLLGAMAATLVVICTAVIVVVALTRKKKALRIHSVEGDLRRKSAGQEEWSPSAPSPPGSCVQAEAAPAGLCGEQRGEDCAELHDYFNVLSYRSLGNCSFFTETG

T2: recombinant monomeric human TIGIT-His (human, UniProt Q495A1 22-141)
T2 construct: also called hTIGIT; not shown: His tag
T2 sequence: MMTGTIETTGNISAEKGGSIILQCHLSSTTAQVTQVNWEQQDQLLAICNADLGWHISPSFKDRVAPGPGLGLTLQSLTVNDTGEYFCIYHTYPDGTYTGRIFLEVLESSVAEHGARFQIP

T3: human PVRL4-His (human, UniProt Q96NY8 32-349)
T3 construct: also called Nectin-4; not shown: His tag
T3 sequence (looked up): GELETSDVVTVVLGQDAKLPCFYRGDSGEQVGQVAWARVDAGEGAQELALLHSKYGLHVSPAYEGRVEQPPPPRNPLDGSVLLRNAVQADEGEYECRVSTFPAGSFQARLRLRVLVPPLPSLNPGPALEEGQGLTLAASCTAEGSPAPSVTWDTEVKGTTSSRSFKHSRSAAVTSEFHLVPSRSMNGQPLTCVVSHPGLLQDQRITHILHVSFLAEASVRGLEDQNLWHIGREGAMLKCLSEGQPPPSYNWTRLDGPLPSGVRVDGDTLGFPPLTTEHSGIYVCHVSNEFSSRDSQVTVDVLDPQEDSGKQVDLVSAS


How the values were obtained:
[1] = target: T1, human TIGIT on the cell surface; test: flow cytometry, antibody titrated against labeled PVRL2-Fc binding to human TIGIT Jurkat cells
Protocol: (§1) Quantitative ligand blocking studies were conducted by using a cell surface TIGIT binding assay.

[2] = target: T4, recombinant monomeric cynomolgus monkey TIGIT-His (cynomolgus monkey); test: BLI (ForteBio), IgG on AHQ sensor, 100 nM monomeric antigen, 1:1 model
T4 construct: also called Cyno TIGIT His; cTIGIT; not shown: His tag
T4 sequence (chain, as listed by the source limits assumed): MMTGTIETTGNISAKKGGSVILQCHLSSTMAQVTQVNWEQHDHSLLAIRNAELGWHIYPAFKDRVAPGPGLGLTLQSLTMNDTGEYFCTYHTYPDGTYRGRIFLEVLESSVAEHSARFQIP
Protocol: (§2) Quantitative binding of antibodies to recombinant monomeric human, mouse (SEQ ID NO: 3), cynomolgus monkey TIGIT was measured using biolayer interferometry (BLI) with a FORTEBIO®. […] FORTEBIO affinity measurements were performed by loading IgGs on-line onto AHQ sensors. Sensors were equilibrated off-line in assay buffer for 30 min and then monitored on-line for 60 seconds for baseline establishment. Sensors with loaded IgGs were exposed to a single concentration of antigen (100 nM) for 3 minutes. Afterwards they were transferred to assay buffer for 3 minutes for off-rate measurement. Kinetics were analyzed using the 1:1 binding model.

[3] = target: T2, recombinant monomeric human TIGIT-His; test: as above
Protocol: as §2

[4] = target: T1, human TIGIT on the cell surface; test: cell-based or functional assay
human PVRL4-His = target: T3, human PVRL4-His; test: BLI, antibody on AHC sensor, human PVRL4-His in solution
Protocol: The BLI analysis was performed at 30° C. using 1× kinetics buffer as assay buffer. AHC sensors were first presoaked in assay buffer for greater than 5 minutes. Antibody (5 μg/mL) was captured on the sensor for 300 seconds. Sensors were then dipped in assay buffer for 120 seconds to establish a baseline before measuring binding to human PVRL4-His protein. Sensors were then dipped into human PVRL4-His (200 nM in assay buffer) for 200 seconds to measure association. Dissociation of PVRL4 was then measured by dipping sensors into assay buffer for 200 seconds. Results were analyzed using Octet® Data Analysis Software Version 8.2.0.7.

[5] = target: T4, recombinant monomeric cynomolgus monkey …; test: MSD-SET solution equilibrium titration, monomeric antigen
Protocol: (§3) See Estep et al., supra, incorporated by reference in its entirety. Briefly, solution equilibrium titrations (SET) were performed in PBS+0.1% IgG-Free BSA (PBSF) with antigen (TIGIT monomer) held constant at 10-100 pM and incubated with 3- to 5-fold serial dilutions of Fab or mAbs starting at 10 pM-10 nM. Antibodies (20 nM in PBS) were coated onto standard bind MSD-ECL plates overnight at 4° C. or at room temperature for 30 min. Plates were then blocked by BSA for 30 min with shaking at 700 rpm, followed by three washes with wash buffer (PBSF+0.05% Tween 20). SET samples were applied and incubated on the plates for 150s with shaking at 700 rpm followed by one wash. Antigen captured on a plate was detected with 250 ng/mL sulfotag-labeled streptavidin in PBSF by incubation on the plate for 3 min. The plates were washed three times with wash buffer and then read on the MSD Sector Imager 2400 instrument using 1× Read Buffer T with surfactant. The percent free antigen was plotted as a function of titrated antibody in Prism and fit to a quadratic equation to extract the KD. To improve throughput, liquid handling robots were used throughout MSD-SET experiments, including SET sample preparation.

[6] = target: T2, recombinant monomeric human TIGIT-His; test: as above
Protocol: as §3

[7] = target: T1, human TIGIT on the cell surface; test: flow cytometry, antibody titrated against labeled PVR-Fc binding to human TIGIT Jurkat cells
Protocol: as §1

[8] = target: T2, recombinant monomeric human TIGIT-His; test: BLI (Octet QKe), antibody on AHC sensor, several concentrations of human TIGIT-His, 1:1 global fit, average
Protocol: A strategy of capturing anti-TIGIT antibodies on sensors following association/dissociation of monomeric TIGIT proteins was used to avoid avidity effects in the assay. The BLI analysis was performed at 29° C. using 1× kinetics buffer (ForteBio) as assay buffer. Anti-human IgG Fc capture (AHC) biosensors (ForteBio) were first presoaked in assay buffer for over five minutes. Anti-TIGIT antibody (5 μg/mL) was captured on the sensor for 300 seconds. Sensors were then dipped in assay buffer for 120 seconds to establish a baseline before measuring binding to each TIGIT protein. […] Dissociation of TIGIT was measured by dipping the sensors into assay buffer for 600, 1200, or 1800 seconds, depending on the experiment (600 seconds was only used for mouse TIGIT-His). Agitation at all steps was 1000 rpm.
Kinetic parameters were generated with Octet® Data Analysis Software Version 8.2.0.7 using reference subtraction, dissociation based inter-step correction, 1-to-1 binding model, and global fit (Rₘₐₓ unlinked by sensor).

Binder | IC50 [1] [nM] | Kd [2] [nM] | Kd [3] [nM] | Average EC50, IL-2 production, human TIGIT Jurkat/anti-CD3 HT-1080 co-culture assay [4] [nM] | binding result (human PVRL4-His) | Kd [5] [nM] | Kd [6] [nM] | IC50 [7] [nM] | Kd [8] [nM] | koff [8] [s⁻¹] | kon [8] [M⁻¹ s⁻¹]
MAB1-IgG4 (antibody, V domains shown) VH: QLQLQESGPGLVKPSETLSLTCTVSGGSITSSSYYWGWIRQPPGKGLEWIGSIYYSGATFYNPSLKSRVTISVDTSKNQFSLKLSSVTAADTAVYYCARDANYYGSAWAFDPWGQGTLVTVSS VL: EIVLTQSPATLSLSPGERATLSCRASQSVSSYLAWYQQKPGQAPRLLIYDASNRATGIPARFSGSGSGTDFTLTISSLEPEDFAVYYCQQHFNLPTFGGGTKVEIKR | 1.4 | 2.64 | 0.524 | 0.22 | no binding (tested: 200 nM) | 0.32 | 0.054 | 2.2 |  |  | 
MAB4-IgG4 (antibody, V domains shown) VH: QLQLQESGPGLVKPSETLSLTCTVSGGSISSTSHYWGWIRQPPGKGLEWIGSIYYSGSTFYNPSLKSRVTISVDTSKNQFSLKLSSVTAADTAVYYCARDANYYGGAWAFDPWGQGTLVTVSS VL: EIVLTQSPATLSLSPGERATLSCRASQSVSSYLAWYQQKPGQAPRLLIYDASNRATGIPARFSGSGSGTDFTLTISSLEPEDFAVYYCQQHFNLPTFGGGTKVEIKR | 1.6 | 0.369 | 0.246 | 0.34 | no binding (tested: 200 nM) | 0.015 | 0.005 | 1.9 | 0.081 | 6.3e-05 | 700000
MAB5-IgG4 (antibody, V domains shown) VH: QLQLQESGPGLVKPSETLSLTCTVSGGSISSTSHYWGWIRQPPGKGLEWIGSIYYSGSTFYNPSLKGRVTISVDTSKNQFSLKLSSVTAADTAVYYCARDANYYGSAWAFDPWGQGTLVTVSS VL: EIVLTQSPATLSLSPGERATLSCRASQSVSSYLAWYQQKPGQAPRLLIYDASNRATGIPARFSGSGSGTDFTLTISSLEPEDFAVYYCQQHFNLPTFGGGTKVEIKR | 1.4 | 0.898 | 0.196 | 0.34 | no binding (tested: 200 nM) | 0.046 | 0.0049 | 1.7 | 0.19 | 0.00014 | 770000
MAB2-IgG4 (antibody, V domains shown) VH: QLQLQESGPGLVKPSETLSLTCTVSGGSISSSKYYWGWIRQPPGKGLEWIGSIYYSGSTFYNPSLKSRVTISVDTSKNQFSLKLSSVTAADTAVYYCARDANYYGSAWAFDPWGQGTLVTVSS VL: EIVLTQSPATLSLSPGERATLSCRASQSVSSYLAWYQQKPGQAPRLLIYDASNRATGIPARFSGSGSGTDFTLTISSLEPEDFAVYYCQQHFNLPTFGGGTKVEIKR | 1.3 | 1.57 | 0.457 | 0.31 | no binding (tested: 200 nM) | 0.23 | 0.025 | 2.3 | 0.71 | 0.00023 | 320000
